Test results published in the supplement of paper PMC9112550, “Optimization of the antimicrobial peptide Bac7 by deep mutational scanning” (BMC Biology, 2022).

What follows are sequences tested on Escherichia coli TOP10 (assay: shrunken log2 fold change of peptide-encoding DNA abundance (4.5 h post-induction vs induction); higher = less antimicrobial activity (less host growth inhibition)). Conditions: time post-induction: 4.5 h; library: site-saturation at positions 5, 18, 19, 20.
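Also: peptides expressed intracellularly from a pBAD plasmid library in pooled LB shake-flask culture, induced with 0.3% L-arabinose, DNA abundance read by NGS, three biological replicates, DESeq2 with apeglm shrinkage.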

| Sequence | shrunken log2 fold change |
| --- | --- |
| RRIRNRPPRLPRPRPRPRPIPRP | 0.333 |
| RRIRNRPPRLPRPRPRPRPRPRP | 0.586 |
| RRIRNRPPRLPRPRPRPRQAPRP | 0.0453 |
| RRIRNRPPRLPRPRPRPRQEPRP | 0.00772 |
| RRIRNRPPRLPRPRPRPRQYPRP | 0.0612 |
| RRIRNRPPRLPRPRPRPRRVPRP | 0.551 |
| RRIRNRPPRLPRPRPRPRSHPRP | -0.127 |
| RRIRNRPPRLPRPRPRPRTDPRP | 0.089 |
| RRIRNRPPRLPRPRPRPRTQPRP | 0.11 |
| RRIRNRPPRLPRPRPRPRVGPRP | 0.0576 |
| RRIRNRPPRLPRPRPRPRVRPRP | 0.212 |
| RRIRNRPPRLPRPRPRPRWNPRP | -0.297 |
| RRIRNRPPRLPRPRPRPRWYPRP | -0.194 |
| RRIRNRPPRLPRPRPRPSADPRP | 0.212 |
| RRIRNRPPRLPRPRPRPSAPPRP | 0.0188 |
| RRIRNRPPRLPRPRPRPSCGPRP | -0.178 |
| RRIRNRPPRLPRPRPRPSCIPRP | -0.507 |
| RRIRNRPPRLPRPRPRPSCVPRP | -0.599 |
| RRIRNRPPRLPRPRPRPSEDPRP | -0.145 |
| RRIRNRPPRLPRPRPRPSFCPRP | -0.548 |
| RRIRNRPPRLPRPRPRPSFKPRP | -0.25 |
| RRIRNRPPRLPRPRPRPSIWPRP | -0.474 |

| Sequence | shrunken log2 fold change |
| --- | --- |
| RRIRNRPPRLPRPRPRPSKSPRP | -0.227 |
| RRIRNRPPRLPRPRPRPSLGPRP | 0.0885 |
| RRIRNRPPRLPRPRPRPSLTPRP | -0.266 |
| RRIRNRPPRLPRPRPRPSMQPRP | -0.152 |
| RRIRNRPPRLPRPRPRPSNKPRP | -0.259 |
| RRIRNRPPRLPRPRPRPSQCPRP | -0.13 |
| RRIRNRPPRLPRPRPRPSQDPRP | -0.102 |
| RRIRNRPPRLPRPRPRPSQYPRP | -0.268 |
| RRIRNRPPRLPRPRPRPSRPPRP | 0.112 |
| RRIRNRPPRLPRPRPRPSSHPRP | -0.0939 |
| RRIRNRPPRLPRPRPRPSTAPRP | -0.28 |
| RRIRNRPPRLPRPRPRPSTFPRP | -0.276 |
| RRIRNRPPRLPRPRPRPSTLPRP | -0.474 |
| RRIRNRPPRLPRPRPRPSVAPRP | -0.0478 |
| RRIRNRPPRLPRPRPRPSWMPRP | -0.487 |
| RRIRNRPPRLPRPRPRPSWNPRP | -0.191 |
| RRIRNRPPRLPRPRPRPSYIPRP | -0.637 |
| RRIRNRPPRLPRPRPRPTADPRP | 0.422 |
| RRIRNRPPRLPRPRPRPTAVPRP | 0.495 |
| RRIRNRPPRLPRPRPRPTDLPRP | -0.228 |
| RRIRNRPPRLPRPRPRPTDPPRP | 0.162 |
| RRIRNRPPRLPRPRPRPTDYPRP | -0.409 |

| Sequence | shrunken log2 fold change |
| --- | --- |
| RRIRNRPPRLPRPRPRPTGEPRP | 0.394 |
| RRIRNRPPRLPRPRPRPTGVPRP | 0.147 |
| RRIRNRPPRLPRPRPRPTGWPRP | 0.355 |
| RRIRNRPPRLPRPRPRPTHVPRP | 0.216 |
| RRIRNRPPRLPRPRPRPTILPRP | -0.742 |
| RRIRNRPPRLPRPRPRPTKKPRP | 0.0702 |
| RRIRNRPPRLPRPRPRPTKNPRP | -0.0348 |
| RRIRNRPPRLPRPRPRPTMHPRP | -0.159 |
| RRIRNRPPRLPRPRPRPTMIPRP | -0.387 |
| RRIRNRPPRLPRPRPRPTNQPRP | -0.281 |
| RRIRNRPPRLPRPRPRPTPRPRP | 0.677 |
| RRIRNRPPRLPRPRPRPTQAPRP | 0.24 |
| RRIRNRPPRLPRPRPRPTQKPRP | 0.241 |
| RRIRNRPPRLPRPRPRPTRRPRP | 0.805 |
| RRIRNRPPRLPRPRPRPTRYPRP | 0.217 |
| RRIRNRPPRLPRPRPRPTSRPRP | -0.129 |
| RRIRNRPPRLPRPRPRPTSSPRP | 0.211 |
| RRIRNRPPRLPRPRPRPTTQPRP | -0.222 |
| RRIRNRPPRLPRPRPRPTWGPRP | -0.00179 |
| RRIRNRPPRLPRPRPRPTWKPRP | 0.0378 |
| RRIRNRPPRLPRPRPRPTWQPRP | 0.0252 |
| RRIRNRPPRLPRPRPRPTWSPRP | -0.352 |

| Sequence | shrunken log2 fold change |
| --- | --- |
| RRIRNRPPRLPRPRPRPTWTPRP | 0.201 |
| RRIRNRPPRLPRPRPRPTYDPRP | -0.396 |
| RRIRNRPPRLPRPRPRPVAEPRP | 0.363 |
| RRIRNRPPRLPRPRPRPVCEPRP | 1.34 |
| RRIRNRPPRLPRPRPRPVDPPRP | 0.0584 |
| RRIRNRPPRLPRPRPRPVDSPRP | -0.196 |
| RRIRNRPPRLPRPRPRPVELPRP | -0.0081 |
| RRIRNRPPRLPRPRPRPVFAPRP | -0.0312 |
| RRIRNRPPRLPRPRPRPVFHPRP | -0.256 |
| RRIRNRPPRLPRPRPRPVFIPRP | -0.459 |
| RRIRNRPPRLPRPRPRPVHHPRP | -2.09 |
| RRIRNRPPRLPRPRPRPVHIPRP | -0.15 |
| RRIRNRPPRLPRPRPRPVHYPRP | -0.124 |
| RRIRNRPPRLPRPRPRPVIKPRP | -0.375 |
| RRIRNRPPRLPRPRPRPVKKPRP | -0.0236 |
| RRIRNRPPRLPRPRPRPVKVPRP | -0.0708 |
| RRIRNRPPRLPRPRPRPVMQPRP | -0.187 |
| RRIRNRPPRLPRPRPRPVNRPRP | 0.00717 |
| RRIRNRPPRLPRPRPRPVPEPRP | 0.61 |
| RRIRNRPPRLPRPRPRPVQHPRP | -0.258 |
| RRIRNRPPRLPRPRPRPVQNPRP | -0.0269 |
| RRIRNRPPRLPRPRPRPVRNPRP | 0.178 |

| Sequence | shrunken log2 fold change |
| --- | --- |
| RRIRNRPPRLPRPRPRPVTAPRP | -0.248 |
| RRIRNRPPRLPRPRPRPVVKPRP | 0.0106 |
| RRIRNRPPRLPRPRPRPVVTPRP | -0.114 |
| RRIRNRPPRLPRPRPRPVWMPRP | -0.0917 |
| RRIRNRPPRLPRPRPRPWAEPRP | 0.125 |
| RRIRNRPPRLPRPRPRPWAQPRP | -0.0776 |
| RRIRNRPPRLPRPRPRPWDCPRP | -0.118 |
| RRIRNRPPRLPRPRPRPWEDPRP | -0.0966 |
| RRIRNRPPRLPRPRPRPWHQPRP | -0.094 |
| RRIRNRPPRLPRPRPRPWIHPRP | 0.0731 |
| RRIRNRPPRLPRPRPRPWNKPRP | -0.184 |
| RRIRNRPPRLPRPRPRPWNPPRP | -0.0102 |
| RRIRNRPPRLPRPRPRPWNSPRP | -0.281 |
| RRIRNRPPRLPRPRPRPWPKPRP | 0.0323 |
| RRIRNRPPRLPRPRPRPWPSPRP | 0.0756 |
| RRIRNRPPRLPRPRPRPWRCPRP | -0.0792 |
| RRIRNRPPRLPRPRPRPWSYPRP | -0.0175 |
| RRIRNRPPRLPRPRPRPWTAPRP | -0.0401 |
| RRIRNRPPRLPRPRPRPWTCPRP | 0.0493 |
| RRIRNRPPRLPRPRPRPWTWPRP | -0.0415 |
| RRIRNRPPRLPRPRPRPWVDPRP | -0.00748 |
